# Patent US20120277143A1 (Janssen / Centocor, published 2012)
# T1: murine IL4 (mouse, UniProt P07750 21-140)
# T1 sequence (looked up): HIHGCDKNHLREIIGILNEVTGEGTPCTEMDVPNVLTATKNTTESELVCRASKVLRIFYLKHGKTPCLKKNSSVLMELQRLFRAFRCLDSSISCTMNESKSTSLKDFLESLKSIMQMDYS
# T2: murine IL13 (mouse, UniProt P20109 21-131, limits assumed)
# T2 sequence (looked up): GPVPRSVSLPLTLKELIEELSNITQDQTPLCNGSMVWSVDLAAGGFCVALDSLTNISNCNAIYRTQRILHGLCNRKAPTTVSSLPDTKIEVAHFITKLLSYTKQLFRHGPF
# B1: 11G11-21H2 (designed binder)
# chain: MRGSHHHHHHGSDLGKKLMEAARAGQDDEVRILMANGADVNAKDLFGITPLHLAAVYGHLEIVEVLLKHGADVNATDNWGSTPLHLAAQFGHLEIVEVLLKYGADVNAQDKFGKTAFDISIDNGNEDLAEILQKLGGGGSGGGGSGGGGSGGGGSRSDLGEKLLEAARAGQDDEVRILMANGADVNAYDDDGMTPLHLAAKSGHLEIVEVLLKHGADVNAMDITGSAPLHLAADLGHLEIVEVLLKHGADVNAIDYLGATPLHLAATYGHPEIVEVLLKYGADVNAQDKFGKTAFDISIDNGNEDLAEILQKLN
# B2: C06-21H2 (designed binder)
# chain: DLGEKLLEAARAGQDDEVRILMANGADVNAYDDDGMTPLHLAAKSGHLEIVEVLLKHGADVNAMDITGSAPLHLAADLGHLEIVEVLLKHGADVNAIDYLGATPLHLAATYGHPEIVEVLLKYGADVNAQDKFGKTAFDISIDNGNEDLAEILQKLN
# Experiments:
# murine IL4 [1] = molecular target: T1, murine IL4; test: cell-based or functional assay
# murine IL13 = molecular target: T2, murine IL13; test: cell-based or functional assay
# murine IL4 [2] = molecular target: T1, murine IL4; test: affinity for mIL4, method and numbers not given
Binder,"IC50 (read off the curve); IL4 dependent HT2 proliferation assay, retentate sample (diamonds, solid line) (murine IL4 [1]) [nM]","IC50 (read off the curve); IL13 STAT6 activation assay, aerosolized sample (triangles) (murine IL13) [nM]","IC50 (read off the curve); IL13 STAT6 activation assay, pre-nebulization sample (squares) (murine IL13) [nM]","IC50 (read off the curve); IL13 STAT6 activation assay, retentate sample (diamonds) (murine IL13) [nM]",binding result (murine IL4 [2])
B1,~0.04,~2,~1,~1,–
B2,–,–,–,–,binds
